# Measured values: publication PMC12221982, “The structure of the complete extracellular bacterial flagellum reveals the mechanism of flagellin incorporation” (Nature Microbiology, 2025)
# B1: FlgL hook-filament junction protein (S. enterica) (natural protein)
# chain: MRISTQMMYEQNMSGITNSQAEWMKLGEQMSTGKRVTNPSDDPIAASQAVVLSQAQAQNSQYALARTFATQKVSLEESVLSQVTTAIQTAQEKIVYAGNGTLSDDDRASLATDLQGIRDQLMNLANSTDGNGRYIFAGYKTEAAPFDQATGGYHGGEKSVTQQVDSARTMVIGHTGAQIFNSITSNAVPEPDGSDSEKNLFVMLDTAIAALKTPVEGNNVEKEKAAAAIDKTNRGLKNSLNNVLTVRAELGTQLSELSTLDSLGSDRALGQKLQMSNLVDVDWNSVISSYVMQQAALQASYKTFTDMQGMSLFQLNR
# notes: FlgL, hook-filament junction protein (distal layer) of Salmonella enterica subsp. enterica serovar Typhimurium LT2; […]; Eleven subunits form the distal layer of the hook-filament junction; also called HFJ; FlgKL; source: endogenous, S. enterica strain EM16009; part of purified short flagella
# B2: FlgK hook-filament junction protein (C. jejuni) (natural protein)
# chain: MGIFGTLYTGVTGLKASEVQIATTGNNISNANATFYTRQRVVQTTNGYITTGGVQVGTGTAVESIVRLHDEYSYYKLKGASTQLEYTKYMASTLQEIAQRFPDLQNTGILQDLENYNKAWNDFASNPNENATKIALVKASQTLTESVNNTFATLDKIQKKVNDDIKNTVDEINRIGEEIATINKQIYGQEALPTEHANELRDRRDELELTLSKLVSAVASKNEINQDNRLDTTITDPGHQYNLSIEGFSIVDGINFHPLKLDYDDKNKSYSIYYETPDEKVRDLTAKISGGQLGAQLDLRGRNYSKSEGKYEDGIIQGYMDSLDTFAKTMINETNNLYASSAKSSVTSDYLSGLKGDIPLVNYDRTIQPGSFDIVIYDDKGDKKLTKTITIDVNTTMNDIMRQINANTDDNDNKNSNDDVDDHINASFSYDAKTGDGLFQINAKSGFKVAIEDKGTNFAGAFSIGGFFSGTDASDMKVKDSILNDPSTVRASSNGVDSGNDMANKIIQLQYKKVNFYNEDGTIDNLTMEEYYRKLTGKIASDGENNNVVNSSNETLYNSVYSEYQSKSGVNTNEELAALIQYQSSYGAAAKIVSTVDQMLDTLLGLKS
# notes: model built from an AlphaFold model; Eleven subunits form the proximal layer of the HFJ; also called C. jejuni FlgK; source: endogenous, C. jejuni ΔflhG ΔflaAB minicells, imaged in situ
# B3: FliD filament cap protein (S. enterica) (natural protein)
# chain: MASISSLGVGSNLPLDQLLTDLTKNEKGRLTPITKQQSANSAKLTAYGTLKSALEKFQTANTALNKADLFKSTVASSTTEDLKVSTTAGAAAGTYKINVTQLAAAQSLATKTTFATTKEQLGDTSVTSRTIKIEQPGRKEPLEIKLDKGDTSMEAIRDAINDADSGIAASIVKVKENEFQLVLTANSGTDNTMKITVEGDTKLNDLLAYDSTTNTGNMQELVKAENAKLNVNGIDIERQSNTVTDAPQGITLTLTKKVTDATVTVTKDDTKAKEAIKSWVDAYNSLVDTFSSLTKYTAVEPGEEASDKNGALLGDSVVRTIQTGIRAQFANSGSNSAFKTMAEIGITQDGTSGKLKIDDDKLTKVLKDNTAAARELLVGDGKETGITTKIATEVKSYLADDGIIDNAQDNVNATLKSLTKQYLSVSNSIDETVARYKAQFTQLDTMMSKLNNTSSYLTQQFTAMNKS
# notes: FliD, flagellar filament cap protein of Salmonella enterica subsp. enterica serovar Typhimurium LT2; domains D0 to D3; […]; Five subunits form the pentameric cap at the distal end of the filament; also called FliD cap; filament cap complex; source: endogenous, S. enterica strain EM16009; part of purified short flagella (DDM lysis, ultracentrifugation)
# B4: FliD filament cap protein (C. jejuni) (natural protein)
# chain: MAFGSLSSLGFGSGVLTQDTIDKLKEAEQKARIDPYTKKIEENTTKQKDLTEIKTKLLSFQTAVSSLADATVFAKRKVVGSISDNPPASLTVNSGVALQSMNINVTQLAQKDVYQSKGLANDGGFVNAQLNGTADLTFFSNGKEYTVTVDKNTTYRDLADKINEASGGEIVAKIVNTGEKGTPYRLTLTSKETGEDSAISFYAGKKDSNGKYQKDINAEKIFDDLGWGLDVSASIDPDKDKKGYGIKDASLHIQTAQNAEFTLDGIKMFRSSNTVTDLGVGMTLTLNKTGEINFDVQQDFEGVTKAMQDLVDAYNDLVTNLNAATDYNSETGTKGTLQGISEVNSIRSSILADLFDSQVVDGTTEDANGNKVNTKVMLSMQDFGLSLNDAGTLSFDSSKFEQKVKEDPDSTESFFSNITKYEDINHTGEVIKTGSLSKYLNSNGGNTNGLEFKPGDFTIVFNNQTYDLSKNSDGTNFKLTGKTEEELLQNLANHINSKGIEGLKVKVESYNQNNVTGFRLNFSGDGSSDFSIKGDANILKELGLSDVNITSKPIEGKGIFSKLKATLQEMTGKDGSITKYDESLTNDIKSLNTSKDSTQAMIDTRYDTMANQWLQYESILNKLNQQLNTVTNMINAANNSNN
# notes: has an additional domain D4; model built from an AlphaFold model; Five subunits form the pentameric cap on the HFJ; also called C. jejuni FliD; FliD cap of C. jejuni; source: endogenous, C. jejuni ΔflhG ΔflaAB minicells, imaged in situ
# B5: FlgE hook protein (S. enterica) (natural protein)
# chain: MSFSQAVSGLNAAATNLDVIGNNIANSATYGFKSGTASFADMFAGSKVGLGVKVAGITQDFTDGTTTNTGRGLDVAISQNGFFRLVDSNGSVFYSRNGQFKLDENRNLVNMQGMQLTGYPATGTPPTIQQGANPAPITIPNTLMAAKSTTTASMQINLNSTDPVPSKTPFSVSDADSYNKKGTVTVYDSQGNAHDMNVYFVKTKDNEWAVYTHDSSDPAATAPTTASTTLKFNENGILESGGTVNITTGTINGATAATFSLSFLNSMQQNTGANNIVATNQNGYKPGDLVSYQINNDGTVVGNYSNEQEQVLGQIVLANFANNEGLASQGDNVWAATQASGVALLGTAGSGNFGKLTNGALEASNVDLSKELVNMIVAQRNYQSNAQTIKTQDQILNTLVNLR
# notes: FlgE, flagellar hook protein of Salmonella enterica subsp. enterica serovar Typhimurium LT2; […]; There are 13 copies in the HFJ model; source: endogenous, S. enterica strain EM16009; part of purified short flagella
# B6: FlgK hook-filament junction protein (S. enterica) (natural protein)
# chain: MSSLINHAMSGLNAAQAALNTVSNNINNYNVAGYTRQTTILAQANSTLGAGGWIGNGVYVSGVQREYDAFITNQLRGAQNQSSGLTTRYEQMSKIDNLLADKSSSLSGSLQSFFTSLQTLVSNAEDPAARQALIGKAEGLVNQFKTTDQYLRDQDKQVNIAIGSSVAQINNYAKQIANLNDQISRMTGVGAGASPNDLLDQRDQLVSELNKIVGVEVSVQDGGTYNLTMANGYTLVQGSTARQLAAVPSSADPTRTTVAYVDEAAGNIEIPEKLLNTGSLGGLLTFRSQDLDQTRNTLGQLALAFADAFNAQHTKGYDADGNKGKDFFSIGSPVVYSNSNNADKTVSLTAKVVDSTKVQATDYKIVFDGTDWQVTRTADNTTFTATKDADGKLEIDGLKVTVGTGAQKNDSFLLKPVSNAIVDMNVKVTNEAEIAMASESKLDPDVDTGDSDNRNGQALLDLQNSNVVGGNKTFNDAYATLVSDVGNKTSTLKTSSTTQANVVKQLYKQQQSVSGVNLDEEYGNLQRYQQYYLANAQVLQTANALFDALLNIR
# notes: FlgK, hook-filament junction protein (proximal layer) of Salmonella enterica subsp. enterica serovar Typhimurium LT2; […]; Eleven subunits form the proximal layer of the hook-filament junction; also called HFJ; FlgKL; source: endogenous, S. enterica strain EM16009; part of purified short flagella
# B7: FlgL hook-filament junction protein (C. jejuni) (natural protein)
# chain: MRITNKLNFTNSVNNSMGGQSALYQISQQLASGLKIQNSYEDASTYIDNTRLEYEIKTLEQVKESTSRAQEMTQNSMKALQDMVKLLEDFKVKVTQAASDSNSQTSREAIAKELERIKESIVQLANTSVNGQYLFAGSQVANKPFDSNGNYYGDKNNINVVTGAGTESPYNIPGWDLFFKADGDYKKQISTNVSFTDNRWDLNKDPDKTKYLTGDSKWQQLIGQGYVKDNSLDADKDFEYDDSKLDFPPTTLYVQGTKPDGTSFKSAVLVKPEDTLEDVMENIGALYGNTPNNKVVEVSMNDSGQIQITDLKQGNNKLDFHAVAFTPQADTKDELKNIIEAANQEGISMNEVTNRVMQAATAAPSNGDITKLNNPVTVTINNQQFTIDLKQTDFIKSKMTDTDGNAANGADYDNVYFEKNGNTVYGNVSQVIKGSNAYATDSTKLSEVMAGDSLNGTTLNLKVNSKGGNSYDVTINLQTSTVSYPDPNNPGQTISFPIMHTNPATGNSGVVTGSNDITYGQINDIIGMFAADKIPTTTIQANNGQINNADYTQIQQLMKDSQATVDVSMDYKGRISVTDKLSSGTNIEISLSDSQSGQFPAPPFTTTSTVQNGPNFSFSANNSLTIDEPNVDIIKDLDSMIDAVLKGNMRADSESENPRNTGMQGALERLDHLADHVSKLNTTMGAYHNTIEGVNTRTSFLSVNVQSIKSNVIDVDYGEAMMNLMQVQLAYQASLKASTTISQLSLLNYM
# notes: has a bulky D2 domain; model built from an AlphaFold model; Eleven subunits form the distal layer of the HFJ; also called C. jejuni FlgL; source: endogenous, C. jejuni ΔflhG ΔflaAB minicells, imaged in situ
# Tests used:
# [1] = target: T1, FliC flagellin (S. enterica) (S. enterica subsp. enterica serovar …, UniProt P06179 1-495); experiment: cryo-EM structure; single-particle cryo-EM of the same purified short flagella of S. enterica EM16009; hook-filament junction map at 2.9 Å; model of 13 FlgE, 11 FlgK, 11 FlgL and 14 FliC; conditions: both partners purified
# T1 construct: FliC, phase 1 flagellin of Salmonella enterica subsp. enterica serovar Typhimurium LT2; domains D0 to D3; […]; There are 17 copies in the cap model and 14 in the HFJ model; also called filament; source: S. enterica strain EM16009, chromosomal fliC under the inducible PtetA promoter (30 min AnTc); part of purified short flagella
# [2] = target: the molecule itself; experiment: as above
# [3] = target: the molecule itself; experiment: cryo-EM structure; single-particle cryo-EM of flagellar hook tips on C. jejuni ΔflhG ΔflaAB minicells (no filament); cap-HFJ map at 6.5 Å; model of 11 FlgK, 11 FlgL and 5 FliD fitted as rigid bodies and refined
# [4] = target: T1, FliC flagellin (S. enterica); experiment: cryo-EM structure; single-particle cryo-EM of purified short flagella of S. enterica EM16009 (buffer B: 10 mM Tris pH 8, 5 mM EDTA, 0.01% DDM); cap-filament map at 3.7 Å; model of 5 FliD and 17 FliC; conditions: both partners purified
# [5] = target: the molecule itself; experiment: as above
# T1 sequence (P06179 whole entry): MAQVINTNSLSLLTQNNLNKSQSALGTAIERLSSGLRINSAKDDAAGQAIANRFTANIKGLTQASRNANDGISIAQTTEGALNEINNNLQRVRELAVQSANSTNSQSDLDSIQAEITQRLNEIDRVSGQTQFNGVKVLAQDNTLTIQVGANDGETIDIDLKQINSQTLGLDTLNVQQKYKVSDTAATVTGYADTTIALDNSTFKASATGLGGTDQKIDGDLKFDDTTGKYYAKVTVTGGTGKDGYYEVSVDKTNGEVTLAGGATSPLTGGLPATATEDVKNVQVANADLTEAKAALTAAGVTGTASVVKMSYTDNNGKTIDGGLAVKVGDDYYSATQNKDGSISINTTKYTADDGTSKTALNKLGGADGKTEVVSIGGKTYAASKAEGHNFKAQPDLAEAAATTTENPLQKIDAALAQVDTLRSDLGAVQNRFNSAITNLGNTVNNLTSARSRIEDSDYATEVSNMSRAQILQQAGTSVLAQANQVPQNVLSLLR
binder,measurement,setting,value
B1,binding result,[1],binds
same,stoichiometry N,[2],11 subunits
B2,stoichiometry N,[3],11 subunits
B3,binding result,[4],binds
same,stoichiometry N,[5],5 subunits
B4,stoichiometry N,[3],5 subunits
B5,binding result,[2],binds
B6,stoichiometry N,[2],11 subunits
B7,stoichiometry N,[3],11 subunits
